This note sets out measurements from patent US20210061896A1 (SHANGHAI YILE BIOTECHNOLOGY, published 2021).

Assay [1] deals with T1, biotinylated VP peptide fragment (human, also: biotinylated (position not given here)).
T1 construct: Synthesized in vitro; 12 amino acids
T1 peptide: VMLSSQVPLEPP
Briefly: ELISA on biotinylated peptide. Background: An ELISA detects its analyte on a solid surface through an enzyme-linked reagent.

In assay [2] the target is T2, biotinylated LL peptide fragment (human, also: biotinylated (position not given here)).
T2 construct: Synthesized in vitro; 12 amino acids
T2 peptide: LLFLLEEYKNYL
Briefly: ELISA on biotinylated peptide.

The target in assay [3] is T3, GST-huBDNFpro E1.
T3 construct: also called GST-huBDNFpro-E1 peptide fragment; GST fusion partner and any linker between GST and the peptide not given
T3 chain: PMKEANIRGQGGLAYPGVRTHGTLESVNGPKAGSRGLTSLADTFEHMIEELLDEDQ
Briefly: ELISA on GST fusion proteins (Example 7), single condition.

Assay [4] deals with T4, GST-huBDNFpro E4.
T4 construct: also called GST-huBDNFpro-E4 peptide fragment; GST fusion partner and any linker between GST and the peptide not given
T4 chain: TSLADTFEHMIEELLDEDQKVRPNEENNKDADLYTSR
The description is as above.

Assay [5] addresses T3, GST-huBDNFpro E1. Nature of the assay: ELISA on GST fusion proteins (Example 7), single condition, concentrations not given.
A further assay concerns the target T5, GST-huBDNFpro E3.
T5 construct: fusion tag; also called GST-huBDNFpro-E3 peptide fragment
The assay is described as above.

The target of assay [6] is T4, GST-huBDNFpro E4. Described as above.
For a further assay, the target named is T6, GST-GPC3.
T6 construct: fusion tag; It appears to be the negative control antigen
The assay is described as above.

For assay [7], the target named is T7, GST-huBDNFpro-E5 peptide fragment (human).
T7 construct: the text speaks of 36 amino acids; also called polypeptide E5; not shown: Glutathione S-transferase (GST) fusion partner
T7 chain: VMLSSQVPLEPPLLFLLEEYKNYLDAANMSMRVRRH
The assay is described as above.

For assay [8], the target named is T8, full length GST-huBDNFpro (human, UniProt P23560 20-129).
T8 construct: GST is placed at the N-terminus by the printed name only; not shown: Glutathione S-transferase (GST) fusion partner
T8 chain: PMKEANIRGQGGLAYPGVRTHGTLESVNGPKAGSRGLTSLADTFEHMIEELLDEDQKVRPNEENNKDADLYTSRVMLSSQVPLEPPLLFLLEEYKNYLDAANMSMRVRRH
The description is as above.

Assay [9] has as its target T9, GST-huBDNFpro-E2 peptide fragment (human, UniProt O18755 76-129 (Procyon lotor entry)).
T9 construct: also called polypeptide E2; not shown: Glutathione S-transferase (GST) fusion partner
T9 sequence: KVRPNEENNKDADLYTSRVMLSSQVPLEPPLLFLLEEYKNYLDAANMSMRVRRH
The assay is described as above.

Assay [10] has as its target T1, biotinylated VP peptide fragment. Nature of the assay: ELISA on biotinylated synthetic peptides (Example 8), single condition, concentrations not given.
For assay [11], the target named is T2, biotinylated LL peptide fragment. The assay is described as above.
Assay [12] has as its target T10, biotinylated DH peptide fragment (human, also: biotinylated (position not given here)).
T10 construct: Synthesized in vitro; 12 amino acids; also called polypeptide DH
T10 peptide: DAANMSMRVRRH
The description is as above.

The target in a further assay is T11, BSA (UniProt P02769 25-607).
T11 construct: also called negative control protein BSA
Nature of the assay: single-phage ELISA. The procedure: Ninety-six clones were randomly selected from the fourth round of screening, and single-phage ELISA (enzyme-linked immunosorbent assay) was used to analyze their binding ability to human proBDNF precursors. For this purpose, each single colony was inoculated into 300 μl of 2×YT/ampicillin medium (containing 2% glucose) in a 96-well deep-well culture plate, shaken and cultured at 37° C. and 250 rpm for 16 hours. 20 μl of the culture was inoculated into 500 μl of 2×YT/ampicillin medium (containing 0.1% glucose), and shaken and cultured at 37° C. and 250 rpm for 1.5 hours. For preparing helper phage solution, 75 μl of M13KO7 (titer: 3×10¹² pfu/ml) was taken and mixed into 15 ml of 2×YT medium, added to the culture plate at 50 μl/well, and incubate at 37° C. and 150 rpm for 30 minutes. And then, the prepared kanamycin solution was added at 50 μl/well (180 μl of 50 mg/ml kanamycin was taken and added to 15 ml 2×YT medium), and shaken and cultured at 37° C. and 250 rpm for 16 hours. […]
To perform a single phage ELISA, a 96-well MediSorp ELISA plate (purchased from Nunc) was coated with 100 ng/well antigen human proBDNF precursor and negative control protein BSA (100 μl/well) respectively, overnight at 4° C. […] The extinction value was measured at 450 nm using an enzyme-linked immunoassay device (Bio-Rad).

Assay [13] concerns the target T12, human proBDNF precursor protein (human, UniProt P23560 19-247).
T12 construct: also called human proBDNF precursor recombinant protein
T12 sequence (looked up): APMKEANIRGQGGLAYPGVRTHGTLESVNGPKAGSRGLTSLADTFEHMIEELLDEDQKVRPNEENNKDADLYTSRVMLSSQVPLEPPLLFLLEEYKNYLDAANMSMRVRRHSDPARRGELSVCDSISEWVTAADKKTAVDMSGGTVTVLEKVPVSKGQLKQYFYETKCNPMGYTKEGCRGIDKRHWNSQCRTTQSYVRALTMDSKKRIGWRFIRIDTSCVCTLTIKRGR
Briefly: SPR, Biacore T200, capture method, antigen 0.25-8 nM. The procedure:
The affinity and kinetic parameters of the 1D3 and 2H8 monoclonal antibodies were measured by the capture method using Biacore T200 system (purchased from GE), respectively. The system was manipulated according to the instructions, human proBDNF precursor protein was used at a concentration of 0.25 nM, 0.5 nM, 1 nM, 2 nM, 4 nM, and 8 nM, respectively. The Biacore T200 evaluation software was used to evaluate the resulting action curve and calculate the affinity KD value.
A general note: Surface plasmon resonance follows binding to a sensor surface in real time, without labels.

Broadly, the Kd is the concentration at which binding is half-saturated. Higher therefore signals lower affinity. Usually koff stands for the rate constant with which the complex falls apart. Read a high koff as fast dissociation. For orientation: kon means the rate constant with which the complex forms.

Ends that are not written are not given here.

T11 sequence (P02769 25-607 limits assumed): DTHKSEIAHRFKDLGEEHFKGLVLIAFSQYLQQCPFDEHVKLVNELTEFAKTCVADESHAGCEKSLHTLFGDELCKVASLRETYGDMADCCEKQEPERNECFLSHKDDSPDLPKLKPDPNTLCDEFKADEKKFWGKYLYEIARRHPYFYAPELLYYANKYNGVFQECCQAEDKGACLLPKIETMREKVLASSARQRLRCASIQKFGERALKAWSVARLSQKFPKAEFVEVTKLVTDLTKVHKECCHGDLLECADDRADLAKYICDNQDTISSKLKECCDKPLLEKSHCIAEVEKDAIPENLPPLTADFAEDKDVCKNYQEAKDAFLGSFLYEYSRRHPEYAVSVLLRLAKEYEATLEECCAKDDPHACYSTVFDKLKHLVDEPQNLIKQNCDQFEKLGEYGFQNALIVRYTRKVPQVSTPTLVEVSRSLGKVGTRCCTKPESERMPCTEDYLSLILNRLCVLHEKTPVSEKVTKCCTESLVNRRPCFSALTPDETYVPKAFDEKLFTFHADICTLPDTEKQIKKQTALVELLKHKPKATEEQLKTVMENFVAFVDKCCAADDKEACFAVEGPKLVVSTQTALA

B1: 1D3 monoclonal antibody (antibody, human IgG4, kappa, V domains shown)
VH: QVQLVESGGGLIQPGGSMRLSCAASGFSLSGYDMHWVRQIAGKGLEWVAGLGMEGDSYYSASVKGRFTISRQDAKNSLYLEMKDLGGGDTAVYYCLRDVHGFDVWGQGTTVTVSS
VL: DVVMTQSPLSLPVTPGEPASISCRSSQSLLYSNGYTYLDWYLQRPGQSPQLLIYMGSNRASGVPDRFSGSGSGTDFTLKISRVEAEDVGVYYCMQALQTPLTFGGGTKLEIKR
notes: also called recombinant monoclonal antibody 1D3 (human IgG1 type); Ab-proBDNF (1D3)
Consider B1, for which the binding result (in assay [1]; in assay [2]; in the assay with GST-huBDNFpro E1 [3]; with GST-huBDNFpro E4 [4]) was “no binding” throughout. In addition, the OD450nM with GST-huBDNFpro E1 [5] turned out to be 0.0114; with GST-huBDNFpro E3, 0.0245; in the assay with GST-huBDNFpro E4 [6], 0.0081; with GST-GPC3, 0.0577; in [7], 0.979; in assay [8], 0.625. Moreover, the OD450nM was determined as 0.914 in assay [9], 0.0122 in assay [10], 0.0167 in assay [11] and 1.7 in assay [12].

B2: single-chain antibody 1D3 (scFv)
scFv: QVQLVESGGGLIQPGGSMRLSCAASGFSLSGYDMHWVRQIAGKGLEWVAGLGMEGDSYYSASVKGRFTISRQDAKNSLYLEMKDLGGGDTAVYYCLRDVHGFDVWGQGTTVTVSSGGGGSGGGGSGGGGSDVVMTQSPLSLPVTPGEPASISCRSSQSLLYSNGYTYLDWYLQRPGQSPQLLIYMGSNRASGVPDRFSGSGSGTDFTLKISRVEAEDVGVYYCMQALQTPLTFGGGTKLEIKR
notes: also called 1D3, scFv; pCantab-1D3
For B2, the binding result in the assay with BSA was “no binding (tested: 100 ng/well coated)”.

B3: 2H8 monoclonal antibody (antibody, human IgG4, kappa, V domains shown)
VH: EVQLVETGGGLVQPGGSLRLSCAASGFTFSSYGMHWVRQAPGKGLEWVSVISGSGDSTYYAESVKGRFTISRDNARNTVYLQMNSLRAEDTAVYYCASGILTGYVFDYWGKGTMVTVSS
VL: DVVMTQSPLSLPVTLGQPASISCRSSQSLVSNDGNTYLNWFQQRPGQPPRRLIYMVSKWDSGVPDRFSGSGSGTDFTLRISRVEAEDVGVYYCMQSTHWPPTFGGGTKLEIKR
notes: also called recombinant monoclonal antibody 2H8 (human IgG1 type)
On to B3, for which the binding result (in assay [1]; in assay [2]; with GST-huBDNFpro E1 [3]; with GST-huBDNFpro E4 [4]) was “no binding” throughout. Moreover, the Kd in [13] was 1.91 nM. This molecule gave a koff in [13] of 0.00594 s⁻¹. In assay [13], this molecule registered a kon of 3.1e+06 M⁻¹ s⁻¹. The OD450nM is 0.015 with GST-huBDNFpro E1 [5]; 0.0144 in the assay with GST-huBDNFpro E3; 0.0089 with GST-huBDNFpro E4 [6]; 0.05 with GST-GPC3; 1.06 in assay [7]; 0.758 in [8]. The OD450nM in [9] was found to be 0.962; in [10] it was 0.0104; in assay [11], 0.0115; in [12], 0.831.

B4: single-chain antibody 2H8 (scFv)
scFv: EVQLVETGGGLVQPGGSLRLSCAASGFTFSSYGMHWVRQAPGKGLEWVSVISGSGDSTYYAESVKGRFTISRDNARNTVYLQMNSLRAEDTAVYYCASGILTGYVFDYWGKGTMVTVSSGGGGSGGGGSGGGGSDVVMTQSPLSLPVTLGQPASISCRSSQSLVSNDGNTYLNWFQQRPGQPPRRLIYMVSKWDSGVPDRFSGSGSGTDFTLRISRVEAEDVGVYYCMQSTHWPPTFGGGTKLEIKR
notes: probably a print error; also called 2H8, scFv; pCantab-2H8
Turning to B4, the binding result in the assay with BSA is “no binding (tested: 100 ng/well coated)”.
